The test system of data set [1] is CCR5 4-finger ZFN-R (ZFP-FokI) (artificial). In words: cell_activity. To be noted: with ZFN-L and WT CFTR donor in CCR5-expressing HEK293 Flp-In; 17% with CFTR delta508F donor; NHEJ deletions at endogenous CCR5.
The subject of data set [2] is CCR5 4-finger ZFN-L (ZFP-FokI) (artificial). In words: cell_activity. To be noted: with ZFN-R and WT CFTR donor in CCR5-expressing HEK293 Flp-In; 17% with CFTR delta508F donor; NHEJ deletions at endogenous CCR5.

“AAACTGCAAAAG (double strand) [CCR5 ZFN-R half-site]” gave an activity (% CCR5-negative cells) in data set [1] of 23. Sequence “GTCATCCTCATC (double strand) [CCR5 ZFN-L half-site]” gave an activity (% CCR5-negative cells) in data set [2] of 23.

Source of the values: patent US20140127814.
